Article PMC13262181 (Structure (London, England : 1993), 2025)
Each block holds one molecule with its values, some of them ahead of it. Ends that are not written are not given here. Ahx = NCCCCCC(=O)O

Assays:
Cdc37 = molecular target: T1, Cdc37 (Homo sapiens, UniProt Q16543); experiment: 19F T2 filter NMR binding to Cdc37; details: 19F-peptides 20 μM, increasing Cdc37 (0.5, 1, 2, 4 μM)
T1 sequence (Q16543 1-378): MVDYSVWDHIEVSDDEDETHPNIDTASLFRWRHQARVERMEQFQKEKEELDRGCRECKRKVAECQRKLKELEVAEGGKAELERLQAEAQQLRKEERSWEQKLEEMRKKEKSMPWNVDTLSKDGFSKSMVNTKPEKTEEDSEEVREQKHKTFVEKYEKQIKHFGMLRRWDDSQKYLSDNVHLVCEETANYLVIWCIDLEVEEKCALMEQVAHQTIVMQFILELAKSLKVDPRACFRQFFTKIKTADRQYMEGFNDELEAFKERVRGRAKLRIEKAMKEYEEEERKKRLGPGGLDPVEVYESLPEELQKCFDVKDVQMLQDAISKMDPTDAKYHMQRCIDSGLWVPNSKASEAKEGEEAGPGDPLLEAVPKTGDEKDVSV

[1] = Solubility of synthesized peptides; format: physicochemical; details: when synthesized and experimentally tested
[2] = molecular target: LVEAVY tracer (synthetic construct); details: cited from earlier work
[3] = molecular target: T2, Hsc70 SBD construct (residues 395-509) (human, UniProt P11142 395-509); experiment: fluorescence polarisation
T2 sequence (P11142 395-509): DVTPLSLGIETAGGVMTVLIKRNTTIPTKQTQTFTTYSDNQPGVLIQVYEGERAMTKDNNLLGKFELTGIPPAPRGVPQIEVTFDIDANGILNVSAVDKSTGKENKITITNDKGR

[4] = molecular target: T2, Hsc70 SBD construct (residues 395-509); experiment: fluorescence polarisation; remark: listed apart in the source
[5] = molecular target: T2, Hsc70 SBD construct (residues 395-509); experiment: fluorescence polarisation; remark: listed apart in the source

Chain of Hsc70 SBD (P11142 394-509): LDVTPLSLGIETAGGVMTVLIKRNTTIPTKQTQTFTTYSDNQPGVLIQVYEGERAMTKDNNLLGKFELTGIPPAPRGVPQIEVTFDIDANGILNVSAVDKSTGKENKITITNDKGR

binding to Cdc37, 19F NMR titration (Cdc37): no interaction was observed
Molecule: PGQLMAISVGPTTLFV [Cdk4-2-scr]

solubility [1]: limited solubility
Molecule: FATSRTDREGPN [Cdk4-1]

solubility [1]: limited solubility
Molecule: F-GVAEIGVGAYG [Cdk4-3]

Molecule: Hsc70 SBD (from UniProt P11142)
Kd [2]: 100 nM

Kd [3]: 29 nM
Molecule: {FAM-Ahx}-LPISTGGFQMALTPVV-OH [FAM-Ahx-LPISTGGFQMALTPVV-OH]

Ki [4]: > 100000 nM
Molecule: Ac-GGFQMALTPVV-OH [unlabeled Cdk4-4]

binding result [5]: binds
Molecule: Ac-TGGFQMAAT [Ac-… with the Leu residue mutated to alanine]

binding result [5]: binds
Molecule: Ac-TGGFQAALT [Ac-… with the Met residue mutated to alanine]
